Measurements reported in US20250263467A1.

Molecular target: SARS-CoV-2 Spike protein on pseudotyped virus (SARS-CoV-2 (Wuhan-Hu-1)) (UniProt P0DTC2)
Experiment: cell-based or functional assay

## S309 rIgG1-LS (antibody)
  maximum neutralization, VSV pseudotype, 293T ACE2 cells: 34%
  maximum neutralization, VSV pseudotype, A549-ACE2-TMPRSS2 clone 10 cells: 42%
  maximum neutralization, VSV pseudotype, Huh7 cells: 78%
  maximum neutralization, VSV pseudotype, MRC5-ACE2-TMPRSS2 cells: 45%
  maximum neutralization, VSV pseudotype, Vero E6-TMPRSS2 cells: 96%
  maximum neutralization, VSV pseudotype, Vero E6 cells: > 99%

## sotrovimab (antibody)
  EC50, neutralization of pseudotyped virus: 0.0241 µg/mL
